{"source": "patent US20210198640A1", "about": "(DENALI THERAPEUTICS, published 2021)", "binders": {"B1": {"name": "recombinant cyno TfR ectodomain (ECD), biotinylated (receptor)", "chain": "CKGVEPKTECERLAGTESPAREEPEEDFPAAPRLYWDDLKRKLSEKLDTTDFTSTIKLLNENLYVPREAGSQKDENLALYIENQFREFKLSKVWRDQHFVKIQVKDSAQNSVIIVDKNGGLVYLVENPGGYVAYSKAATVTGKLVHANFGTKKDFEDLDSPVNGSIVIVRAGKITFAEKVANAESLNAIGVLIYMDQTKFPIVKADLSFFGHAHLGTGDPYTPGFPSFNHTQFPPSQSSGLPNIPVQTISRAAAEKLFGNMEGDCPSDWKTDSTCKMVTSENKSVKLTVSNVLKETKILNIFGVIKGFVEPDHYVVVGAQRDAWGPGAAKSSVGTALLLKLAQMFSDMVLKDGFQPSRSIIFASWSAGDFGSVGATEWLEGYLSSLHLKAFTYINLDKAVLGTSNFKVSASPLLYTLIEKTMQDVKHPVTGRSLYQDSNWASKVEKLTLDNAAFPFLAYSGIPAVSFCFCEDTDYPYLGTTMDTYKELVERIPELNKVARAAAEVAGQFVIKLTHDTELNLDYERYNSQLLLFLRDLNQYRADVKEMGLSLQWLYSARGDFFRATSRLTTDFRNAEKRDKFVMKKLNDRVMRVEYYFLSPYVSPKESPFRHVFWGSGSHTLSALLESLKLRRQNNSAFNETLFRNQLALATWTIQGAANALSGDVWDIDNEF"}, "B2": {"name": "Clone CH3C.3.2-1 (designed binder)", "chain": "APELLGGPSVFLFPPKPKDTLMISRTPEVTCVVVDVSHEDPEVKFNWYVDGVEVHNAKTKPREEQYNSTYRVVSVLTVLHQDWLNGKEYKCKVSNKALPAPIEKTISKAKGQPREPQVYTLPPSRDELTKNQVSLTCLVKGFYPSDIAVEWESLGHVWVNFKTTPPVLDSDGSFFLYSKLTVPKSTWQQGWVFSCSVMHEALHNHYTQKSLSLSPGK", "notes": "modified Fc polypeptide"}, "B3": {"name": "Clone CH3C.34 (designed binder)", "chain": "B2 chain with H156L, N160F, F161S", "notes": "modified Fc polypeptide"}, "B4": {"name": "Clone CH3C.25 (designed binder)", "chain": "B2 chain with L154M, N160G, F161Y, P183D", "notes": "modified Fc polypeptide"}, "B5": {"name": "Clone CH3C.21 (designed binder)", "chain": "B2 chain with H156L, N160G, F161Y", "notes": "modified Fc polypeptide"}}, "key": {"[1]": {"target": "CH3C.35.N153.bi", "assay": "SPR, TfR ECD captured, clone injected, steady state"}, "[2]": {"target": "T1, human transferrin receptor protein 1 (TfR) (human, UniProt P02786 89-760, limits assumed)", "T1 construct": "also called human TfR; hTfR", "assay": "ELISA, TfR coated on plate, Fc-Fab fusion"}, "[3]": {"target": "T1, human transferrin receptor protein 1 …", "assay": "selection from soft randomization libraries"}}, "note": "Positions count from the first letter of the chain named."}
{"binder": "B1", "values": [{"measurement": "Kd", "setting": "[1]", "value": 3.3, "unit": "µM"}]}
{"binder": "B2", "values": [{"measurement": "binding result", "setting": "[2]", "value": "binds"}]}
{"binder": "B3", "values": [{"measurement": "binding result", "setting": "[3]", "value": "binds"}]}
{"binder": "B4", "values": [{"measurement": "binding result", "setting": "[3]", "value": "binds"}]}
{"binder": "B5", "values": [{"measurement": "binding result", "setting": "[3]", "value": "binds"}]}
